Experimental data reported in patent US8951750B2 (BASF SE, priority 2007, dated 2015).
Like-named read-outs stand apart in the source and are kept apart here.

Key:
[1] = tested on: AMDase from Mesorhizobium sp. BNC1; assay: BTB activity assay, alkenyl-substituted substrates of formula I; type: biochemical; conditions: 30° C.
Description: (§1) This method involves measuring spectrophotometrically at 620 nm the change of yellow colour to green/blue of pH indicator—BTB with increasing concentration of [OH^−] formed during the decarboxylation reaction. […] More concentrated buffer (10 mM) gives better results with higher concentration of enzyme or quicker reactions since changes of colour are slower due to higher buffer capacity.
(§2) All kinetics assays were performed on an Anthos Zenyth 3100 96-well microplate reader. 10 μl of 20-500 mM phenylmalonate or methyl-phenylmalonate solution (pH adjusted to 7.2) was added to 180 μl of 5-10 mM MOPS buffer pH 7.2 containing 0.0186 mM bromothymol blue. The reaction was initiated by addition of 10 μl of decarboxylase solution (0.002-0.02 mM, final concentration). The sensitivity of the reaction depends on the concentration of buffer, lower concentrations give higher sensitivity. The values of KM and kcat were calculated from spectophotometrical measurements at 620 nm of the resulting blue solution using Lineweaver-Burk plot and the following equations: […]
A BTB activity assay was performed as described above. Compounds of formula I, wherein R^2 is methyl and R^1 is phenyl, ethenyl, propen-1-yl, buten-1-yl or 2-methylpropen-1-yl were tested as substrates.

C/C=C/C(C)(C(=O)O)C(=O)O = assay: purified protein, by the assay type; conditions: other: 30° C., BTB assay, pH 7.2
Description: (§3) All kinetics assays were performed on an Anthos Zenyth 3100 96-well microplate reader. […] The reaction was initiated by addition of 10 μl of decarboxylase solution (0.002-0.02 mM, final concentration). The sensitivity of the reaction depends on the concentration of buffer, lower concentrations give higher sensitivity. The values of KM and kcat were calculated from spectophotometrical measurements at 620 nm of the resulting blue solution using Lineweaver-Burk plot and the following equations:
C=CC(C)(C(=O)O)C(=O)O = assay: purified protein, by the assay type; conditions: other: 30° C., BTB assay, pH 7.2
Description: as §3

[2] = tested on: CC(C)=CC(C)(C(=O)O)C(=O)O; assay: purified protein, by the assay type; conditions: other: 30° C., BTB assay, pH 7.2
Description: as §3

[3] = tested on: CC/C=C/C(C)(C(=O)O)C(=O)O; assay: purified protein, by the assay type; conditions: other: 30° C., BTB assay, pH 7.2
Description: as §3

[4] = BTB spectrophotometric assay of kinetic constants, substrate phenylmalonate; type: biochemical; conditions: for Km / kcat: substrate 2-phenylmalonic acid (1), His6-tagged enzyme, BTB method; for decarboxylase activity in words: substrate phenylmalonate 1, purified enzymes
Description: as §1, §2

[5] = BTB spectrophotometric assay of kinetic constants, substrate 2-methyl-2-phenylmalonate; type: biochemical; conditions: for Km / kcat / reaction with 2-methyl-2-phenylmalonic acid (2) (cell spans Km, kcat, kcat/Km): substrate 2-methyl-2-phenylmalonic acid (2), BTB method; for Km / kcat: His6-tagged enzyme
Description: as §1, §2

[6] = In vitro decarboxylation of 2-methyl-2-phenylmalonate to 2-phenylpropanoic acid; type: biochemical; conditions: for absolute configuration of the product: 2-phenylpropionate product
Description: [formula] [formula] [formula] h) In Vitro Decarboxylation of 2-methyl-2-phenylmalonate to 2-phenylpropanoic Acid by AMDase from Bordetella bronchiseptica and Asp/Glu Racemase from Mesorhizobium sp. BNC1.
To 400 μl of 0.1 M TRIS buffer pH 8, 100 μl of 0.5 M water solution (after adjusting pH to 8) of 2-methyl-2-phenylmalonic acid was added. Then 20 μl of an AMDase solution (10 mg/mL) was added and the reaction was stirred at 30° C. for 8 h. Products were extracted with diethyl ether after acidifying with 1 M HCl and methylated with TMS-diazomethane. The reaction was analyzed by GC (conversion up to 95%) and 2-phenylpropanoic acid formation confirmed by GC-MS, ^1H NMR. Both enzyme products (after methylation) had the same configuration (the same peak on GC with chiral column, ee>99%). Thus according to the literature^7 absolute configuration of the product was R.

[7] = In vivo plate assay for AMDase activity (BTB), substrate phenylmalonate; type: cell-based; conditions: E. coli expressing the enzyme
Description: Test Petri dishes were prepared using following medium: 1% tryptone, 0.5% yeast extract, 1% sodium chloride, 1% agar, 0.025% bromothymol blue (BTB). Then pH was adjusted to 6.5 and the medium autoclaved. When medium temperature reached 50-60° C. isopropyl-β-D-thiogalactopyranoside (1 mM, final concentration), kanamycin ([…], final concentration) and phenylmalonic acid (0.36%, final concentration) were added. 100 μl of liquid bacterial culture containing AMDase was plated on test Petri dishes. After 2-3 days of incubation at 37° C. the colonies and surrounding area changed colour to green-blue indicating AMDase activity.

[8] = substrate 2-phenylmalonic acid (1); literature data (footnote a, ref 6); cited from earlier work
[9] = substrate 2-methyl-2-phenylmalonic acid (2); literature data (footnote a, ref 6); cited from earlier work

For C=CC(C)(C(=O)O)C(=O)O [compound 3, 2-methyl-2-vinylmalonic acid], which Km [1] is on record?
The Km was 19.4 mM.

What about the kcat [1] of the same molecule?
Its kcat is 8.9 s⁻¹.

With “AMDase from Bordetella bronchiseptica KU1201 (Bordetella bronchiseptica)” as the molecule, how does the Km (C/C=C/C(C)(C(=O)O)C(=O)O) read?
The Km was 12.8 mM.

What about the kcat (C/C=C/C(C)(C(=O)O)C(=O)O) of the same molecule?
The kcat was 46.2 s⁻¹.

And the kcat/Km (C/C=C/C(C)(C(=O)O)C(=O)O)?
Its kcat/Km is 3600 M⁻¹ s⁻¹.

And the Km (C=CC(C)(C(=O)O)C(=O)O)?
The Km was 7.8 mM.

What about the kcat (C=CC(C)(C(=O)O)C(=O)O) of the same molecule?
The kcat was 42.8 s⁻¹.

What about the kcat/Km (C=CC(C)(C(=O)O)C(=O)O) of the same molecule?
Its kcat/Km is 5500 M⁻¹ s⁻¹.

What about the Km [2] of the same molecule?
The Km was 3.5 mM.

What about the kcat [2] of the same molecule?
Its kcat is 5.2 s⁻¹.

And the kcat/Km [2]?
Its kcat/Km is 1500 M⁻¹ s⁻¹.

What about the Km [3] of the same molecule?
Its Km is 14.4 mM.

And the kcat [3]?
Its kcat is 23.9 s⁻¹.

What about the kcat/Km [3] of the same molecule?
Its kcat/Km is 1600 M⁻¹ s⁻¹.

B1: AMDase from Bordetella bronchiseptica: arylmalonate decarboxylase from Bordetella bronchiseptica, SEQ ID NO: 2, Blast entry BAA02419.1 (protein, listed as Bordetella bronchiseptica)
chain: MQQASTPTIGMIVPPAAGLVPADGARLYPDLPFIASGLGLGSVTPEGYDAVIESVVDHARRLQKQGAAVVSLMGTSLSFYRGAAFNAALTVAMREATGLPCTTMSTAVLNGLRALGVRRVALATAYIDDVNERLAAFLAEESLVPTGCRSLGITGVEAMARVDTATLVDLCVRAFEAAPDSDGILLSCGGLLTLDAIPEVERRLGVPVVSSSPAGFWDAVRLAGGGAKARPGYGRLFDESLEHHHHHH
With B1 as the molecule, how does the Km [4] read?
Its Km is 10.7 mM.

And the kcat [4]?
Its kcat is 316.1 s⁻¹.

And the Km [5]?
The Km was 26.9 mM.

And the kcat [5]?
Its kcat is 278.9 s⁻¹.

What about the “absolute configuration of the product” value [6] of the same molecule?
The value was “R-configuration”.

What about the “colour change of BTB indicator (decarboxylase activity)” value [7] of the same molecule?
The value was “clear change in colour from yellow to blue”.

What about the Km [8] of the same molecule?
Its Km is 13.9 mM.

What about the kcat [8] of the same molecule?
Its kcat is “(353)^a ^ s^−1”.

And the Km [9]?
Its Km is 25.5 mM.

And the kcat [9]?
Its kcat is “(29.8)^a s^−1”.

B2: protein EAN08019.1 from Mesorhizobium sp. BNC1: Asp/Glu racemase [Mesorhizobium sp. BNC1], SEQ ID NO: 4, shown to have AMDase activity (protein, listed as Mesorhizobium sp.)
chain: MSAEDPVIGLIVPPAAGLVPPEAVAMYPEVTFHASGLGLKEMTPCGYAGVIDLVGDHAERHAQAGAQAVALMGTSLSFFRGAAFNAELITHMSNRSGLPATTMSQAVVDELKSHGARRIAVVTAYRQDVNNLLAAFLNEHGIEARSLKSLGITSVADVAGTPAKRLLQLCKEAVHDAGPVDAVLISCGGLHTLDVIVDVEISTGLPVVTSATAGVRGAVGLLKRSAETAEHATSKFLTGRALEHHHHHH
Which results are given for B2?
Km [4]: 9.6 mM; kcat [4]: 118 s⁻¹; decarboxylase activity in words [4]: very efficient decarboxylase activity; decarboxylase activity in words ([5]; substrate 2-methyl-2-phenylmalonate 2, purified enzymes): very efficient decarboxylase activity; Km [5]: 22.2 mM; kcat [5]: 55.8 s⁻¹; absolute configuration of the product [6]: R-configuration; ee of 2-phenylpropanoic acid product ([6]; GC with chiral column after methylation): > 99%

B3: protein NP_888076.1 from Bordetella bronchiseptica RB50: Putative decarboxylase [Bordetella bronchiseptica RB50], SEQ ID NO: 8 (protein, listed as Bordetella bronchiseptica)
chain: MPTPTQMKTTARYRPYAWRAKVGLIVPSTNTINEPEFYRLAPDGVTIHTGRAINAGPATQENYDRMARGVLEAADLIKTAEVDVVAYGCTSGSIVCSLDELCDGMSERVGVPAIATAGAVVAALRALGVRRVAVGTPYIDFVNQREREFLEQYGFEVVSIEGMDLGHTQEERRDIGRVPPQSTFQLARDIDRPQAEAIFLSCTNLATLDMIERIENELGKPVVTSNQATFWACLRLLGLSCAIPGYGRLLTDCLAPITRASYALALEHHHHHH
What does the source list for B3?
Km [4]: 10 mM; kcat [4]: 12.4 s⁻¹; decarboxylase activity in words [4]: moderate activity; reaction with 2-methyl-2-phenylmalonic acid (2) (cell spans Km, kcat, kcat/Km) [5]: No reaction

B4: protein BAA30082.1 from Pyrococcus horikoshii OT3: Hypothetical arylmalonate decarboxylase [Pyrococcus horikoshii OT3], SEQ ID NO: 6 (protein, listed as Pyrococcus horikoshii)
chain: MYGWRRRIGLIVPSSNTTMEPEFWKMAPEGVSIHTARMRLREVTEESLLEMERHAKDAALELADAEVDVIVYGCTSGSLIKGKGYDKEIAKNLEEASGIKTITTSTAVLNALNTLDIQKVVVATPYIDSVNEREKEFLEANGIEVLRIKGLGIVKNTEIGRQEPWVAYKLALEVYTPEADGLFISCTNFRTIEIIDKLEVELGVPVVTSNQATMWYALKTMKVKEKYDMYGTLLKEKLLEHHHHHH
Which Km [4] does the source give for B4 here?
The Km was 41.7 mM.

And the kcat [4]?
Its kcat is 0.09 s⁻¹.

And the “decarboxylase activity in words” value [4]?
The value was “very low levels of activity”.

And the “reaction with 2-methyl-2-phenylmalonic acid (2) (cell spans Km, kcat, kcat/Km)” value [5]?
The value was “No reaction”.

And the “colour change of BTB indicator (decarboxylase activity)” value [7]?
The value was “only slow development of colour”.

B5: protein ZP_00801202.1 from Alkaliphilus metalliredigenes QYMF: Asp/Glu racemase [Alkaliphilus metalliredigenes QYMF], SEQ ID NO: 10 (protein)
chain: MSDFSYGGRAKIGLIYPAPGWVMEPEFYLMAPWGVSTYTTRISLKHVNVAELRKLGDQSVEAAELLAQAPLDVIALGCTSGSFVNGSRYDQELIEKMEGVSGGIPCTTTSTAVVAALKALHVTKIAVATPYIDEVNLKAKNFLEAEGLDVVNIKGLGLLQDIEIDRQDMETVYRLAKEVDHVEAQAIVILCTGLRSVPIIEALENDLGKPVISAIQATFWHCLRLSGVRENVEGYGSLLRIEGLLEHHHHHH
modifications: Alkaliphilus metalliredigenes
What does the source list for B5?
kcat [4]: 0.26 s⁻¹; decarboxylase activity in words [4]: very low levels of activity; reaction with 2-methyl-2-phenylmalonic acid (2) (cell spans Km, kcat, kcat/Km) [5]: No reaction; colour change of BTB indicator (decarboxylase activity) [7]: only slow development of colour
